Test results published in patent US12037419B2 (The Feinstein Institutes for Medical Research, priority 2016, dated 2024).

How the values were obtained:
[1] = system: human monocytes; assay: Induction of anti-inflammatory molecules / M2-like phenotype (Mer, PDL-1, IL-10, CD163) in monocytes; format: cell-based; details: together with HMGB1 3 μg/ml, C1q 25 μg/ml or C1q tail 53 μg/ml, 24 h
Procedure: (§1) Monocyte isolation and stimulation: Human PBMCs were obtained following institutional guidelines of the Feinstein Institute for Medical Research (Feinstein) and isolated from blood of healthy donors by density centrifugation (New York Blood Bank). Monocytes were negatively enriched using a human monocyte enrichment kit (Stem Cell Technology). Purity of monocytes (≥90% CD11b+CD14+LAIR-1+) was determined by flow cytometry. […] Splenic murine monocytes from wild type mice, RAGE deficient or LAIR-1 conditional knockout mice were isolated using EasySep mouse monocyte enrichment kit (Stem Cell Technology). C57BL/6 mice, Lysozyme2-Cre transgenic mice were purchased from Jackson Laboratory. Myeloid specific LAIR-1 conditional knockout mice (Lysozyme2-Cre×LAIR fl/fl) were bred and maintained in our facility (Feinstein) under specific pathogen-free conditions. RAGE deficient mice (Department of Medicine, Karolinska Institute Stockholm, Sweden) were maintained at Feinstein. Eight-to ten weeks old male mice were used for experiments. All animal procedures were approved by the Feinstein Institutional Animal Care and Use Committee.
RT-PCR analysis and primers: Total RNA was extracted from cells (1-2×10^6 cells per sample) with an RNeasy kit (Qiagen, Venlo, Limburg, Netherlands) and cDNA was generated using an iScript cDNA synthesis kit (Bio-Rad laboratories). […] The relative induction was calculated by 2-ΔΔCt.
(§2) Cytokine analysis: Cytokine levels were measured using a Human Proinflammatory 7-plex assay following the manufacturer's protocols (Meso Scale Discovery (MSD). MSD plates were analyzed on the MS2400 imager (MSD). All standards and samples were run in duplicates.
Flow cytometry: Cells were suspended in staining buffer containing 2% BSA and incubated with Fc block (Miltenyi Biotec) for 15 min on ice. […] Events were acquired using either an LSRII or Fortessa cell analyzer (BD Biosciences), and data were analyzed using FlowJo (Tree star).

[2] = biological target: T1, RAGE (Homo sapiens, UniProt Q15109); assay: SPR assay of C1q and RAGE binding; details: data not shown
T1 construct: purchased R&D Systems
T1 sequence (Q15109 23-342 limits assumed): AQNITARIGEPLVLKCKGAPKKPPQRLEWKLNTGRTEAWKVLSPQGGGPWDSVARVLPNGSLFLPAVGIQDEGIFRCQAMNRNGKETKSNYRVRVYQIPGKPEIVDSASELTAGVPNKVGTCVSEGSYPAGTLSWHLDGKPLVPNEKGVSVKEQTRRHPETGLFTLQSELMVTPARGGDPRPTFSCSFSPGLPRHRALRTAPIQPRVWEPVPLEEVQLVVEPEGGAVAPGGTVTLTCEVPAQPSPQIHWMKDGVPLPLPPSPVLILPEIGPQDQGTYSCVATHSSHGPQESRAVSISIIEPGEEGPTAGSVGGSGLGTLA
Procedure: Surface Plasmon Resonance analysis (SPR): For real-time binding interaction studies, a BIAcore T200 instrument (GE Healthcare) was used. […] A 1:1 mixture of N-hydroxysuccinimide and N-ethyl-N-(dimethyaminopropyl) carbodiimide was used to activate 2 flow-cells of the CMS chip. […] The analytes were diluted in 1×PBS+0.01% (vol/vol) tween-20 buffer. The analytes were sequentially injected at a flow rate of 30 μl/min for 60 s at 25° C. The KD was dertermined using the BIAcore evaluation software 2.0 (GE Healthcare) supposing a 1:1 binding ratio.

[3] = system: human monocytes; assay: SeaHorse cellular flux assay (OCR, ECAR); format: cell-based; details: HMGB1 3 μg/ml alone, 24 h
Procedure: Cell metabolism analysis using SeaHorse Cellular Flux assay. […] One hour prior to measurement, culture medium was exchanged for assay medium (unbuffered DMEM (Sigma), supplemented with 10 mM Glucose, 1 mM Pyruvate and 2 mM Glutamine for mitochondrial assays, or with 2 mM Glutamine alone for glycolytic assays. Reagents were injected during the measurement to achieve final concentrations of oligomycin (1 μM), carbonyl cyanide p-(trifluoromethoxy) phenylhydrazone (FCCP) ([…]), Rotenone/antimycin A (0.5 μM). Glucose (10 mM), and 2-Deoxy-D glucose (50 mM). Oxygen consumption rate (OCR) and Extracellular acidification rate (ECAR) values were measured using a SeaHorse XfP instrument (SeaHorse bioscience). Measured values were normalized to the number of live cells present in each well as determined by a trypan blue staining by the end of each run. For OCR/ECAR ratio calculations, an average of the last two basal readings was used for both OCR and ECAR.

[4] = system: allogeneic primary human CD4 T cells; assay: Allogeneic mixed lymphocyte reaction; format: cell-based; details: HMGB1 3 μg/ml alone
Procedure: Allogeneic CD4 T lymphocytes were isolated from blood using the Naïve CD4+ T cell isolation kit II (Miltenyi Biotec.) following the manufacturer's protocol. Cells were analyzed by flow cytometry (>90%). T cells were labeled with 5 μM Cell Trace Violet cell proliferation kit (Thermo Fisher Scientific), added to mono/macrophages at a density of 2×10^5 cells/well (a 1:2 ratio) in the presence of 1 μg/ml anti-CD3 (OKT3, eBioscience). Control cultures contained medium only or T cells or mono/macrophages alone. After 4 days, cells were stained with FITC-anti-CD4, PerCPCy 5.5-CD14, PE-LAIR-1 and fixable viability dyes (FVD, eBioscience) for 20 min at room temperature and subsequently washed and fixed. Live cells (FVD-negative cells) were then gated on CD4-positive, and cell trace violet was assessed by flow cytometry on a BD LSR II (BD Biosciences). Cell proliferation was analyzed as described (51). The % divided cells was defined as the probability that a cell has divided at least once from the original population. The division index was defined as the average number of cell divisions that a cell in the original population has undergone.

[5] = system: human monocytes; assay: HMGB1-induced monocyte activation (cytokine mRNA by q-PCR, protein by ELISA/MSD); format: cell-based; details: HMGB1 alone
Procedure: as §1
RT-PCR analysis and primers: Total RNA was extracted from cells (1-2×10^6 cells per sample) with an RNeasy kit (Qiagen, Venlo, Limburg, Netherlands) and cDNA was generated using an iScript cDNA synthesis kit (Bio-Rad laboratories). Real Time-PCR was performed on a Light Cycler 480 II (Roche) using Light Cycler 480 master mix with primers (Applied Biosystems) for IFNα1 (Hs00256882), IFNα7 (mm02525960), MX1 (Hs00182073, mm01217998), IL-6 (Hs00985639, mm99999064), TNFα (Hs00174128, mm00443258), IL-12a (Hs00168405), Mer (Hs01031973), PDL-1 (Hs01125301), IL-10 (Hs00961622), CD163 (Hs00174705), HPRT1 (Hs99999909, mm01545399) and Polr2a (Hs00172187). The genes of interest were normalized to the expression of house keeping genes and were compared to a control condition with no treatment. The relative induction was calculated by 2-ΔΔCt.
Transfection: For RNA interference assays, human monocytes were transfected using an Amaxa Nucleofector kit (Lonza) with a greater than 40% transfection efficiency. siRNAs were obtained from Qiagen. The target sequence of human LAIR1-11 is […] (SEQ ID NO:9). The efficiency of knockdown was determined by flow cytometry and q-PCR.
as §2

[6] = system: human monocytes; assay: Monocyte to DC differentiation with GM-CSF and IL-4 (flow cytometry); format: cell-based; details: HMGB1 alone 24 h, then GM-CSF and IL-4
[7] = system: murine macrophages; assay: RvD2 and LTB4 in murine macrophages after HMGB1 in vivo (FIG. 22); set-up: species or system mouse
[8] = system: NZB/W mice; assay: NZB/W lupus mice in vivo (FIG. 23-25); set-up: species or system mouse

Molecule: C1q tail: C1q tail purified from whole C1q; collagen-like tail
- transcription and protein expression of anti-inflammatory factors (Mer, PDL-1, IL-10, CD163) [1]: did not mediate similar effects
- binding to RAGE [2]: No binding

B1: HMGB1: Recombinant HMGB1 (Calmodulin Binding Protein Epitope, Cbp tagged) (protein)
chain: MGKGDPKKPRGKMSSYAFFVQTCREEHKKKHPDASVNFSEFSKKCSERWKTMSAKEKGKFEDMAKADKARYEREMKTYIPPKGETKKKFKDPNAPKRPPSAFFLFCSEYRPKIKGEHPGLSIGDVAKKLGEMWNNTAADDKQPYEKKAAKLKEKYEKDIAAYRAKGKPDAAKKGVVKAEKSKKKKEEEEDEEDEEDEEEEEDEEDEDEEEDDDDE
modifications: left off: small tags and cut ends
- OCR/ECAR ratio [3]: significantly decreased
- baseline oxidative phosphorylation (OCR) and glycolytic metabolism (ECAR) [3]: enhanced
- stimulation of T cells by monocytes exposed to HMGB1 [4]: induced the strongest mixed lymphocyte reaction
- transcription and secretion of type 1 IFN, IFN-inducible genes and proinflammatory cytokines [5]: dramatically increased
- monocyte to DC differentiation after pre-treatment with HMGB1 [6]: monocyte to DC differentiation occurred

B2: KLKEKYEKDIAAYRAKGKPDAAKKGVVKAEKSKKGGGGSGGGGSGGGGSKGEQ GEPGAPGI (peptide)
chain: KLKEKYEKDIAAYRAKGKPDAAKKGVVKAEKSKKGGGGSGGGGSGGGGSKGEQGEPGAPGI
modifications: Artificial based on human
notes: HMGB1 B box-linker-C1q peptide
- LTB4 induction by HMGB1 in murine macrophages [7]: abolishes LTB4 induction
- RvD2 in murine macrophages ([7]; HMGB1 challenge): induces RvD2
- anti-DNA IgM/IgG-producing splenocytes ([8]; NZB/W mice in vivo): decreases anti-DNA IgM/IgG-producing splenocytes
- inflammatory and anti-inflammatory markers in splenocytes ([8]; NZB/W mice in vivo): decreases inflammatory and increases anti-inflammatory markers
- progression of serum anti-dsDNA antibodies ([8]; NZB/W mice in vivo): slows the progression
- kidney IgG deposition ([8]; NZB/W mice, staining data not shown): decreases kidney IgG deposition
